B1: untagged semi-synthetic EMD LCD 3xD_(191-195) (protein)
chain: RRLSPPSSSAASSYSFSDLNSTRGDADMYDLPKKEDALLYQSKGYNDDYYEESYFTTRTYGEPESAGPSRAVRQSVTSFPDADAFHHQVHDDDLLSSSEEECKDRERPMYGRDSAYQSITHYRPVSASRSSLDLSYYPTSSSTCFMSSSSSSSSWLTRRAIRPENRAPGAGLGQER
B2: untagged semi-synthetic EMD LCD 3xD_(199-203) (protein)
chain: B1 chain
B3: untagged semi-synthetic EMD LCD 3xD_(203-207) (protein)
chain: B1 chain
B4: untagged semi-synthetic EMD LCD 3xD_(195-199) (protein)
chain: B1 chain
B5: HA-tagged semi-synthetic EMD LCD 3xD_(191-195) (domain or fragment)
chain: B1 chain
modifications: three D-amino acids at alternating positions within 191-195
B6: HA-tagged semi-synthetic EMD LCD 3xD_(207-211) (domain or fragment)
chain: B1 chain
modifications: three D-amino acids at alternating positions within 207-211
B7: HA-tagged semi-synthetic EMD LCD 3xD_(199-203) (domain or fragment)
chain: B1 chain
modifications: three D-amino acids at alternating positions within 199-203
B8: HA-tagged semi-synthetic EMD LCD 3xD_(203-207) (domain or fragment)
chain: B1 chain
modifications: three D-amino acids at alternating positions within 203-207
B9: HA-tagged semi-synthetic EMD LCD 3xD_(211-215) (domain or fragment)
chain: B1 chain
modifications: three D-amino acids at alternating positions within 211-215
B10: HA-tagged semi-synthetic EMD LCD 3xD_(195-199) (domain or fragment)
chain: B1 chain
modifications: three D-amino acids at alternating positions within 195-199
B11: untagged semi-synthetic EMD LCD (residues 46-221), all L- wild-type (domain or fragment, UniProt P50402 46-221, looked up)
chain: B1 chain
notes: Emerin (EMD) low-complexity domain, residues 46-221 (P1 46-188 recombinant, P2 189-221 synthetic); P2 made on Rink amide resin (C-terminal amide surmised); source: RP-HPLC purified
B12: synthetic NEFL head domain 5xD_(22-30) (protein)
chain: SSFSYEPYYSTSYKRRYVETPRVHISSVRCGYSTARSAYSSYSAPVSSSLSVRRSYSSSSGSLMPSLENLELS
B13: synthetic NEFL head domain 5xD_(43-51) (protein)
chain: B12 chain
B14: synthetic NEFL head domain 5xD_(63-71) (protein)
chain: B12 chain
B15: synthetic NEFL head domain 5xD_(33-41) (protein)
chain: B12 chain
B16: synthetic NEFL head domain 5xD_(53-63) (protein)
chain: B12 chain

In one data set the target is P50402. The data set can be described thus: turbidity (absorbance at 395 nm); untagged semi-synthetic EMD LCD 3xD ChIM library, 50 μM LCD (n=3). The conditions noted are these: other: turbidity (absorbance at 395 nm).
Regarding B1, the “fold decrease in turbidity relative to wild-type” value is 13.3-, 2.8-, and 2.1-fold decreases in turbidity. Same read-out and setting: the result for B2 reads 13.3-, 2.8-, and 2.1-fold decreases in turbidity.

As to B3, the “fold decrease in turbidity relative to wild-type” value is “displays a modest 1.4-fold decrease in turbidity”.

Regarding B4, the “fold decrease in turbidity relative to wild-type” value is 13.3-, 2.8-, and 2.1-fold decreases in turbidity.

The target of another data set is T1, wild-type glutathione S-transferase (GST)-EMD LCD fusion protein.
T1 sequence (P50402 whole entry, species assumed, looked up): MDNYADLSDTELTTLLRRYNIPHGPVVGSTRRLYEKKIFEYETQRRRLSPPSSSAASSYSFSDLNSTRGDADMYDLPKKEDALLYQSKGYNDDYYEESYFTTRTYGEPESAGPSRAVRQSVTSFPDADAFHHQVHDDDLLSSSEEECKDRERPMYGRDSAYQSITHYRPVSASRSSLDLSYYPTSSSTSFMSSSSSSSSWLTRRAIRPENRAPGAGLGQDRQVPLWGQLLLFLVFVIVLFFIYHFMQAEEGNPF
The data set can be described thus: pull-down; wild-type GST-EMD LCD immobilized on glutathione resin, incubated with HA-tagged EMD LCD prey (50 nM), washed with binding buffer, eluted with GSH; Western blot against HA in eluent relative to input, densitometry (n=3).
Details: not given
The molecule B5 gave a fold reduction of pulldown relative to wild-type of 8.8 fold.

In turn, B6 gave a fold reduction of pulldown relative to wild-type of 1.8 fold. B7 gave a fold reduction of pulldown relative to wild-type of 6.2 fold. Molecule B8 registered a fold reduction of pulldown relative to wild-type of 3.6 fold.

The molecule B9 had a fold reduction of pulldown relative to wild-type of 1.7 fold. Still for that read-out and setting: the result for B10 reads 7.9 fold.

For a further data set the target is unchanged. The data set can be described thus: GST pulldown, Western blot against HA, densitometry. The conditions noted are these: HA-tagged 3xPro EMD LCD prey 50 nM; n=3; parent: est. 0.26; read off a plot. On the technique in general: Immunoblotting shows a protein as a band on a membrane.
For the molecule “HA-tagged EMD LCD, wild-type (recombinant) 3xPro 208-211 (insertion, not substitution: ...aa208(Pro)aa209(Pro)aa210(Pro)aa211...)”, the response was determined as 0.21 Fraction IP.

On to “HA-tagged EMD LCD, wild-type (recombinant) 3xPro 178-181 (insertion, not substitution: ...aa178(Pro)aa179(Pro)aa180(Pro)aa181...)”, for which the response came out at 0.21 Fraction IP. With “HA-tagged EMD LCD, wild-type (recombinant) 3xPro 203-205 (label as printed; insertion of three prolines, not substitution)”, the response was 0.18 Fraction IP.

The next data set concerns the molecule itself. The data set can be described thus: turbidity (absorbance at 395 nm); untagged semi-synthetic EMD LCD 3xD ChIM library, 50 μM LCD (n=3).
Details: not given
For the molecule B11, the binding result is “binds”.

Test system in the next data set: not listed separately
The data set can be described thus: turbidity (absorbance at 395 nm); untagged recombinant EMD LCD 3xPro library, 60 μM LCD, transferred from denaturing to native Tris buffer (n=3). The conditions noted are these: other: turbidity (absorbance at 395 nm).
Regarding untagged EMD LCD 3xPro_(193-196), the “fold decrease in turbidity relative to wild-type” value was “reduce turbidity by 107.6-, 16.6-, 34.7-, and 14.3-fold, respectively”. Take untagged EMD LCD 3xPro_(188-191): the “fold decrease in turbidity relative to wild-type” value is “reduce turbidity by 107.6-, 16.6-, 34.7-, and 14.3-fold, respectively”. The same measure, in the same setting: the same measure for untagged EMD LCD 3xPro_(203-206): “reduce turbidity by 107.6-, 16.6-, 34.7-, and 14.3-fold, respectively”; for untagged EMD LCD 3xPro_(183-186): “modestly reduces turbidity by 2.8-fold relative to wild-type”; for untagged EMD LCD 3xPro_(198-201): “reduce turbidity by 107.6-, 16.6-, 34.7-, and 14.3-fold, respectively”.

For the next data set, the target named is T1, wild-type glutathione S-transferase (GST)-EMD LCD fusion protein. The data set can be described thus: pull-down; wild-type GST-EMD LCD immobilized on glutathione resin, incubated with HA-tagged EMD LCD prey (50 nM), washed with binding buffer, eluted with GSH; Western blot against HA in eluent relative to input, densitometry (n=3).
Details: not given
The source holds these as a separate data set.
The molecule “HA-tagged EMD LCD 3xPro_(188-191) (domain or fragment)” yielded a fold reduction of pulldown relative to wild-type of 5 fold. The same measure, in the same setting: the same measure for “HA-tagged EMD LCD 3xPro_(183-186) (domain or fragment)”: 2.2 fold. Same read-out and setting: the same measure for “HA-tagged EMD LCD 3xPro_(193-196) (domain or fragment)”: 5.9 fold; for “HA-tagged EMD LCD 3xPro_(198-201) (domain or fragment)”: 3.4 fold.

The target of a further data set is P07196. The data set can be described thus: turbidity (absorbance at 395 nm); synthetic NEFL head domain 5xD ChIM library, 100 μM LCD (n=3). The conditions noted are these: other: turbidity (absorbance at 395 nm).
As to B12, the “fold decrease in turbidity relative to wild-type” value is “with 9.1-fold and 20-fold decreases in turbidity relative to wild-type, respectively”.

For B13, the “fold decrease in turbidity relative to wild-type” value is “with 2.7-fold, 1.6-fold, and 1-fold relative decreases in turbidity, respectively”. As to B14, the “fold decrease in turbidity relative to wild-type” value is “with 2.7-fold, 1.6-fold, and 1-fold relative decreases in turbidity, respectively”. In the case of B15, the “fold decrease in turbidity relative to wild-type” value is “with 9.1-fold and 20-fold decreases in turbidity relative to wild-type, respectively”. The same measure, in the same setting: the same measure for B16: “with 2.7-fold, 1.6-fold, and 1-fold relative decreases in turbidity, respectively”.

Values taken from publication doi:10.64898/2025.12.17.694949, “Chiral inversion mutagenesis identifies geometrically constrained residues within self-associating low-complexity domains” (bioRxiv, 2025).
